Measured values: paper PMC7375805

Target: AP2 FLAP (full-length β2 subunit AP2 complex, i.e. AP2 lacking the α appendage and the α hinge) (UniProt P18484)
Test: cryo-EM structure; cryo-electron tomography and subtomogram averaging of AP2 FLAP on liposomes with PtdIns(4,5)P2 and TGN38 YxxΦ lipopeptide, no clathrin, HKM2 buffer; ~9 Å

percent of AP2 dimerized: 20% | stoichiometry N: 2
Substance: AP2 FLAP (full-length β2 subunit AP2 complex, i.e. AP2 lacking the α appendage and the α hinge) (from UniProt P18484 1-621; P63010 1-937; P84092 1-435; P62743 1-142)
